This passage reports binding result, Kd and kon results from patent US20170015742A1 (published 2017).

Where a chain is given by its changes, count along the chain named. Names and notes keep the numbering of the source.

First the molecules themselves.
B1: CODV003 (bispecific antibody, human IgG1, kappa, L234A L235A)
heavy: not shown
light: DFQLTQSPSSLSASVGDRVTITCERSSGDIGDSYVSWYQQKPGKAPKNVIYADDQRPSGVPSRFSGSGSGNSASLTISSLQPEDFATYFCQSYDINIDIVFGQGTKVEIKGGGSGGGDIQMTQSPSSLSASVGDRVTITCSASQDISNYLNWYQQKPGKAPKVLIYFTSSLHSGVPSRFSGSGSGTDFTLTISSLQPEDFATYYCQQYSTVPWTFGQGTKVEIKGGGSGRTVAAPSVFIFPPSDEQLKSGTASVVCLLNNFYPREAKVQWKVDNALQSGNSQESVTEQDSKDSTYSLSSTLTLSKADYEKHKVYACEVTHQGLSSPVTKSFNRGEC
notes: Anti-human VEGF-A/anti-human PDGF-BB cross-over DVD-Ig (CO-DVD-Ig); also called PR-1565044
B2: CODV006 (bispecific antibody, human IgG1, kappa, L234A L235A)
heavy: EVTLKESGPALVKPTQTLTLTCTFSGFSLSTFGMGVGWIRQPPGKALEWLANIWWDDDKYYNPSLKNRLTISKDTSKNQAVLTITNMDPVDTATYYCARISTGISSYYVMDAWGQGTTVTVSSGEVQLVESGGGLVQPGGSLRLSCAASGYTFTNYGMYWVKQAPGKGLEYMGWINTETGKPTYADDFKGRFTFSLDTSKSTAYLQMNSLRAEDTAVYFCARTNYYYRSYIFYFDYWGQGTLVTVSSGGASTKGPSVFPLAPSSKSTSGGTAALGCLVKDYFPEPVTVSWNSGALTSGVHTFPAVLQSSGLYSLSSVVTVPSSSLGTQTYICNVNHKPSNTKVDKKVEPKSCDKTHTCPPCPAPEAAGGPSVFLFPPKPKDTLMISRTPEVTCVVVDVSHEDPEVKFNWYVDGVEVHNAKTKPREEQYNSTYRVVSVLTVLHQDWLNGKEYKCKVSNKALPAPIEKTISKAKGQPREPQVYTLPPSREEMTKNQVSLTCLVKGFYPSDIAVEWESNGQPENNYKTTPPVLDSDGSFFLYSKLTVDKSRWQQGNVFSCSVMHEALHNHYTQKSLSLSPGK
light: DTQLTQSPSSLSASVGDRVTISCRASESVSTHMHWYQQKPGKAPKLLIYGASNLESGVPSRFSGSGSGTDFTLTISSLQPEDFATYFCQQSWNDPFTFGQGTKVEIKGGGSGGGDFQLTQSPSSLSASVGDRVTITCERSSGDIGDTYVSWYQQKPGKAPKNVIYGNDQRPSGVPSRFSGSGSGNSATLTISSLQPEDFATYFCQSYDSDIDIVFGQGTKVEIKGGGSGRTVAAPSVFIFPPSDEQLKSGTASVVCLLNNFYPREAKVQWKVDNALQSGNSQESVTEQDSKDSTYSLSSTLTLSKADYEKHKVYACEVTHQGLSSPVTKSFNRGEC
notes: Anti-human VEGF-A/anti-human PDGF-BB cross-over DVD-Ig (CO-DVD-Ig); also called PR-1565084
B3: CODV008 (bispecific antibody, human IgG1, kappa, L234A L235A)
heavy: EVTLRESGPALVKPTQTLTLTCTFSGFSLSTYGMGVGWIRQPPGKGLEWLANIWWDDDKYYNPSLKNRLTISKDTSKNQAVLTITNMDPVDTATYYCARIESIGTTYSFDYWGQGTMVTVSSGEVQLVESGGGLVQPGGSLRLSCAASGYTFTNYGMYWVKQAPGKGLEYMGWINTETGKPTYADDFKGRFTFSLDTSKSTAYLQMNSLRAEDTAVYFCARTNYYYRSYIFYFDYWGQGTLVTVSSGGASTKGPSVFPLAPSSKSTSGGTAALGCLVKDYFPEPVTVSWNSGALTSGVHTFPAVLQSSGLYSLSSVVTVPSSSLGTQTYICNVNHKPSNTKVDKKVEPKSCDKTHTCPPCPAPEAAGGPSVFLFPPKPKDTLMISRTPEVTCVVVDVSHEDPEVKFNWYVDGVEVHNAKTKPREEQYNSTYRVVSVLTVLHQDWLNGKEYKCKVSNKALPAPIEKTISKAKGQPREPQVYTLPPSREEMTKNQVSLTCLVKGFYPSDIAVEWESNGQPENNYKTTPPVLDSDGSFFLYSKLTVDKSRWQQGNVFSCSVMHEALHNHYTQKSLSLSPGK
light: B2 light with T147S, G166A, N167D, T188S, S209I, D210N
notes: Anti-human VEGF-A/anti-human PDGF-BB cross-over DVD-Ig (CO-DVD-Ig); also called PR-1565086
B4: CODV004 (bispecific antibody, human IgG1, kappa, L234A L235A)
heavy: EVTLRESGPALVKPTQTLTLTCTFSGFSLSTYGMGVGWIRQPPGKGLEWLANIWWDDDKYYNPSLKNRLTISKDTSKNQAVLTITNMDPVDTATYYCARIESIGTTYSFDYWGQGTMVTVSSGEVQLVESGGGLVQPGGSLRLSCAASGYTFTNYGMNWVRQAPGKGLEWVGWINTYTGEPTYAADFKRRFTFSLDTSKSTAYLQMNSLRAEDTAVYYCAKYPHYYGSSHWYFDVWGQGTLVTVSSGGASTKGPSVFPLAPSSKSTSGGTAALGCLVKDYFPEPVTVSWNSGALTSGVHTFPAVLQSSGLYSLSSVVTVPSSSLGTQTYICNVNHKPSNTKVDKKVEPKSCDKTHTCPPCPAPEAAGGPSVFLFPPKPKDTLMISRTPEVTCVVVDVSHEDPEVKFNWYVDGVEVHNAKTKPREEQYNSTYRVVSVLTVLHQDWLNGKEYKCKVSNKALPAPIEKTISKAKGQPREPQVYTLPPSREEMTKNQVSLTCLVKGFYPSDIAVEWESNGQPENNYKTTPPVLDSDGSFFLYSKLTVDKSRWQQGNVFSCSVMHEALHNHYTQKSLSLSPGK
light: DIQMTQSPSSLSASVGDRVTITCSASQDISNYLNWYQQKPGKAPKVLIYFTSSLHSGVPSRFSGSGSGTDFTLTISSLQPEDFATYYCQQYSTVPWTFGQGTKVEIKGGGSGGGDFQLTQSPSSLSASVGDRVTITCERSSGDIGDSYVSWYQQKPGKAPKNVIYADDQRPSGVPSRFSGSGSGNSASLTISSLQPEDFATYFCQSYDINIDIVFGQGTKVEIKGGGSGRTVAAPSVFIFPPSDEQLKSGTASVVCLLNNFYPREAKVQWKVDNALQSGNSQESVTEQDSKDSTYSLSSTLTLSKADYEKHKVYACEVTHQGLSSPVTKSFNRGEC
notes: Anti-human VEGF-A/anti-human PDGF-BB cross-over DVD-Ig (CO-DVD-Ig); also called PR-1565051
B5: CODV005 (bispecific antibody, human IgG1, kappa, L234A L235A)
heavy: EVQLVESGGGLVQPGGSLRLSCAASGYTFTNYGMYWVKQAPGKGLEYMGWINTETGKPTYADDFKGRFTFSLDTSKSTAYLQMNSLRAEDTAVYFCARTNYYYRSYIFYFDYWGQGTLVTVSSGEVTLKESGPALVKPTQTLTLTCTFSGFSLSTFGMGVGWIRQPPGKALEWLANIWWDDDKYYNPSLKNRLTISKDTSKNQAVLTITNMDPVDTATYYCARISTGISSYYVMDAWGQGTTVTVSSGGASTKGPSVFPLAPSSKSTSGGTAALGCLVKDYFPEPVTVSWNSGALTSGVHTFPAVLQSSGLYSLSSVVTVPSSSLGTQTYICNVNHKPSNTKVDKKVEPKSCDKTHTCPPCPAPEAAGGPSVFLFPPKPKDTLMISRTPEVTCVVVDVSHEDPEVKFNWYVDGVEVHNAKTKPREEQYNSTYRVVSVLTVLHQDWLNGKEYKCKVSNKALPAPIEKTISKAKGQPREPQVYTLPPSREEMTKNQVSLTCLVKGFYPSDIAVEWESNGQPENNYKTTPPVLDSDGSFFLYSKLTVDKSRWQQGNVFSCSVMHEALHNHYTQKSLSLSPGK
light: DFQLTQSPSSLSASVGDRVTITCERSSGDIGDTYVSWYQQKPGKAPKNVIYGNDQRPSGVPSRFSGSGSGNSATLTISSLQPEDFATYFCQSYDSDIDIVFGQGTKVEIKGGGSGGGDTQLTQSPSSLSASVGDRVTISCRASESVSTHMHWYQQKPGKAPKLLIYGASNLESGVPSRFSGSGSGTDFTLTISSLQPEDFATYFCQQSWNDPFTFGQGTKVEIKGGGSGRTVAAPSVFIFPPSDEQLKSGTASVVCLLNNFYPREAKVQWKVDNALQSGNSQESVTEQDSKDSTYSLSSTLTLSKADYEKHKVYACEVTHQGLSSPVTKSFNRGEC
notes: Anti-human VEGF-A/anti-human PDGF-BB cross-over DVD-Ig (CO-DVD-Ig); also called PR-1565083
B6: CODV007 (bispecific antibody, human IgG1, kappa, L234A L235A)
heavy: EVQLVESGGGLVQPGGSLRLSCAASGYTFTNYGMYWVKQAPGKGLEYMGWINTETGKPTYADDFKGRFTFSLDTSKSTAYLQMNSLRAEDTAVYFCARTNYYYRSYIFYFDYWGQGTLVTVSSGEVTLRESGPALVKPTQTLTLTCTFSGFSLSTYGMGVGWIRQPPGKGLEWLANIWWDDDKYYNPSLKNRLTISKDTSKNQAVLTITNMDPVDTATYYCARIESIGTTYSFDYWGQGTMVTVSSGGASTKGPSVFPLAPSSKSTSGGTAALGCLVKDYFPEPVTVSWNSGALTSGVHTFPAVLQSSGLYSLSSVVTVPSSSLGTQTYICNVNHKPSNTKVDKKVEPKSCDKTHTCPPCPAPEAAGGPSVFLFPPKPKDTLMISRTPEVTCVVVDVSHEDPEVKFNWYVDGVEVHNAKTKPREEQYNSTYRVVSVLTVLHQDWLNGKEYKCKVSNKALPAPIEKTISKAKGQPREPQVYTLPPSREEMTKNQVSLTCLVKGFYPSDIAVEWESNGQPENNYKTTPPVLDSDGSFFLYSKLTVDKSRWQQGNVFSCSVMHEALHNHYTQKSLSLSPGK
light: B5 light with T33S, G52A, N53D, T74S, S95I, D96N
notes: Anti-human VEGF-A/anti-human PDGF-BB cross-over DVD-Ig (CO-DVD-Ig); also called PR-1565085
B7: DVD3905 (PR-1565032) (bispecific antibody, human IgG1, kappa, L234A L235A)
heavy: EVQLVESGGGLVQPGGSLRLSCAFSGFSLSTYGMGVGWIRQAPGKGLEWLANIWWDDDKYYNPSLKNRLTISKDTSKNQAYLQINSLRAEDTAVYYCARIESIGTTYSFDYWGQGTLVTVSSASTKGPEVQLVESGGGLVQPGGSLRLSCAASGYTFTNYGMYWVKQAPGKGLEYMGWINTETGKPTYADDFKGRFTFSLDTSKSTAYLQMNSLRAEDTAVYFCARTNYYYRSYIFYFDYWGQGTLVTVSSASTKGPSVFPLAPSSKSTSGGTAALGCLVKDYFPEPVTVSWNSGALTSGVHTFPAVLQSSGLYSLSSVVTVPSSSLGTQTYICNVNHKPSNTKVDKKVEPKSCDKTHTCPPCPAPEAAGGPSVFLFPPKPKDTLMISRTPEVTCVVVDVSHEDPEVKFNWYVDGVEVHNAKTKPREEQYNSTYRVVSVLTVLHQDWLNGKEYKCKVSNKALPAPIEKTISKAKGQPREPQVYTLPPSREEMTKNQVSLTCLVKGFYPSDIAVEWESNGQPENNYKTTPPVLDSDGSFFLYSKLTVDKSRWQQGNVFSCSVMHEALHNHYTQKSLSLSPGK
light: DFQLTQSPSSLSASVGDRVTITCERSSGDIGDSYVSWYQQKPGKAPKNVIYADDQRPSGVPSRFSGSGSGNSASLTISSLQPEDFATYFCQSYDINIDIVFGQGTKVEIKGTVAAPSVFIFPPDTQLTQSPSSLSASVGDRVTISCRASESVSTHMHWYQQKPGKAPKLLIYGASNLESGVPSRFSGSGSGTDFTLTISSLQPEDFATYFCQQSWNDPFTFGQGTKVEIKRTVAAPSVFIFPPSDEQLKSGTASVVCLLNNFYPREAKVQWKVDNALQSGNSQESVTEQDSKDSTYSLSSTLTLSKADYEKHKVYACEVTHQGLSSPVTKSFNRGEC
notes: DVD-Ig; outer hBDI-9E8.12 (PDGF), linkers HG-short/LK-long, inner hBDB-4G8.15 (VEGF); human IgG1 L234A, L235A / kappa
B8: DVD3906 (PR-1565035) (bispecific antibody, human IgG1, kappa, L234A L235A)
heavy: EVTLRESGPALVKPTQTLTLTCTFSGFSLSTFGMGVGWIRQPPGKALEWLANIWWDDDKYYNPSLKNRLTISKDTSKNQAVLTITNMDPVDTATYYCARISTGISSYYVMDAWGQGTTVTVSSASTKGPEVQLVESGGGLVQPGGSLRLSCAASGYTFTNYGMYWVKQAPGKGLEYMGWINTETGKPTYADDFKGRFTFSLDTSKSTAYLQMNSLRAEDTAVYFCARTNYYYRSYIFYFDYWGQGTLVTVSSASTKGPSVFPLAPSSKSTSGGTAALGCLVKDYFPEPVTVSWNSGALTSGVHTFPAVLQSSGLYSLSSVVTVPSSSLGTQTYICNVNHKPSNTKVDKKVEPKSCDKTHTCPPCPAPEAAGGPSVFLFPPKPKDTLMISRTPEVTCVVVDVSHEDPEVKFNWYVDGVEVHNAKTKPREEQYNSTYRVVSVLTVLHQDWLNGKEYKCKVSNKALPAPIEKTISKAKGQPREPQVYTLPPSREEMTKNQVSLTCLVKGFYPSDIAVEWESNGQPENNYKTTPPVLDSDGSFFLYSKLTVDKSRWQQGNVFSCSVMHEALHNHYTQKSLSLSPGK
light: B7 light with S33T, A52G, D53N, S74T, I95S, N96D
notes: DVD-Ig; linkers HG-short/LK-long, inner hBDB-4G8.15 (VEGF); human IgG1 L234A, L235A / kappa
B9: 4G8.3-GS(11)-9E8.4 (g) (PR-1572103) (bispecific antibody, human IgG1, kappa, L234A L235A)
heavy: EVQLVQSGSELKKPGASVKVSCKASGYTFTNYGMYWVRQAPGQGLEWMGWINTETGKPTYADDFKGRFVFSLDTSVSTAYLQISSLKAEDTAVYYCARTNYYYRSYIFYFDYWGQGTMVTVSSGGGGSGGGGSEVTLRESGPALVKPTQTLTLTCTFSGFSLSTYGMGVGWIRQPPGKALEWLANIWWDDDKYYNPSLKNRLTISKDTSKNQVVLTMTNMDPVDTATYYCARIESIGTTYSFDYWGQGTMVTVSSASTKGPSVFPLAPSSKSTSGGTAALGCLVKDYFPEPVTVSWNSGALTSGVHTFPAVLQSSGLYSLSSVVTVPSSSLGTQTYICNVNHKPSNTKVDKKVEPKSCDKTHTCPPCPAPEAAGGPSVFLFPPKPKDTLMISRTPEVTCVVVDVSHEDPEVKFNWYVDGVEVHNAKTKPREEQYNSTYRVVSVLTVLHQDWLNGKEYKCKVSNKALPAPIEKTISKAKGQPREPQVYTLPPSREEMTKNQVSLTCLVKGFYPSDIAVEWESNGQPENNYKTTPPVLDSDGSFFLYSKLTVDKSRWQQGNVFSCSVMHEALHNAYTQKSLSLSPGK
light: DTVLTQSPATLSLSPGERATLSCRASESVSTHMHWYQQKPGQAPRLLIYGASNLESGVPARFSGSGSGTDFTLTISSLEPEDFAVYFCQQSWNDPFTFGQGTKLEIKRGGSGGGGSGGEFVLTQSPGTLSLSPGERATLSCERSSGDIGDSYVSWYQQKPGQAPRLVIYADDQRPSGIPDRFSGSGSGTDFTLTISRLEPEDFAVYYCQSYDINIDIVFGGGTKVEIKRTVAAPSVFIFPPSDEQLKSGTASVVCLLNNFYPREAKVQWKVDNALQSGNSQESVTEQDSKDSTYSLSSTLTLSKADYEKHKVYACEVTHQGLSSPVTKSFNRGEC
notes: DVD-Ig; outer hBDB-4G8.3 (VEGF), linkers GS-H10/GS-L11, inner hBDI-9E8.4 (PDGF); human IgG1 L234A, L235A, H435A / kappa

Chain of PDGF-BB (P01127 82-190): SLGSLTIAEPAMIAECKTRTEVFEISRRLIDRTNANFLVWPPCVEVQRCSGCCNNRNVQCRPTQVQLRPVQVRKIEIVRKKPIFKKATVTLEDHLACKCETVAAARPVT

The target of the first assay is T1, Human VEGF-A 165 (human, UniProt P15692 207-395).
T1 construct: also called hVEGF165
T1 sequence (P15692 other isoform, or with tags, fused parts or gaps limits assumed): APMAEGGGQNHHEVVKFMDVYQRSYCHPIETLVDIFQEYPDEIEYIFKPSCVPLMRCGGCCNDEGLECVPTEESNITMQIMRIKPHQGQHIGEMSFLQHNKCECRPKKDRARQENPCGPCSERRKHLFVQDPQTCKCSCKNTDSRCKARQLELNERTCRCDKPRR
Put plainly: SPR (Biacore), method of Example 1.1. On the procedure:
(§1) Unreacted moieties on the biosensor surface were blocked with ethanolamine. For kinetic analysis, rate equations derived from the 1:1 Langmuir binding model were fitted simultaneously to multiple antigen injections (using global fit analysis) with the use of Scrubber 2 (BioLogic Software), Biacore Biaevaluation 4.0.1 software or Biacore T100 Evaluation software. Purified antibodies or DVD-Ig molecules were diluted in running buffer for capture across goat anti-human Fc reaction surfaces. Antibodies or DVD-Ig molecules to be captured as a ligand (1 μg/ml) were injected over reaction matrices at a flow rate of 10 μl/minute. During the assay, all measurements were referenced against the capture surface alone (i.e., with no captured antibody or DVD-Ig molecule). […] The equilibrium dissociation constant KD (M) of the reaction between antibodies and the target antigen was then calculated from the kinetic rate constants by the following formula: KD=Koff/Kₒₙ. Binding was recorded as a function of time and kinetic rate constants were calculated. In this assay, on-rates as fast as 10⁶M⁻¹s⁻¹ and off-rates as slow as 10⁻⁶ s⁻¹ could be measured.
(In general: In SPR one partner is held on a chip, and binding of the other changes the refractive index at the surface.)
For B1, the binding result was “no binding”.
The same measure, in the same setting: next, B2: “no binding”; B3: “no binding”.
The same measure, in the same setting: in the case of B4 it was “no binding”.
Molecule B5 had a Kd of 35 nM.
Still for that read-out and setting: in the case of B6 it was 22 nM.

For the next assay, the target named is T2, Human PDGF-BB (human, UniProt P01127 82-190).
T2 construct: also called hPDGF-BB
T2 sequence (P01127 82-190 limits assumed): as the sequence (P01127 82-190) above
Put plainly: SPR (Biacore), method of Example 1.1. As for the experimental part:
as §1
Turning to B1, the affinity, expressed as Kd, was 0.011 nM and the kon was 2.3e+07 M⁻¹ s⁻¹.
Regarding B2, binding was characterised by a dissociation constant (Kd) of 0.0097 nM and the kon was determined as 2.2e+07 M⁻¹ s⁻¹.
In turn, B3 had a Kd of 0.0074 nM and a kon of 1.7e+07 M⁻¹ s⁻¹.
In turn, B4 yielded a Kd of 0.087 nM and a kon of 1e+07 M⁻¹ s⁻¹.
B5 showed a Kd of 0.011 nM and a kon of 1.2e+07 M⁻¹ s⁻¹.
For B6, in that order: 0.0073 nM and 2.9e+07 M⁻¹ s⁻¹.

In another assay the target is VEGF-A (UniProt P15692-4 27-191, limits assumed). Put plainly: SPR (Biacore), DVD-Ig captured by anti-human Fc, antigen in flow. As for the experimental part: as §1, with “For example, approximately 9000 RU of goat anti-human Fc specific polyclonal antibody (Thermo Fisher Scientific Inc., Rockford, Ill.) diluted in 10 mM sodium acetate (pH 4.5) is directly immobilized across a CM5 research grade biosensor chip using a standard amine coupling kit according to manufacturer's instructions and procedures at 25 μg/ml. Unreacted” for “Unreacted”, “calculated.” for “calculated. In this assay, on-rates as fast as 10⁶M⁻¹s⁻¹ and off-rates as slow as 10⁻⁶ s⁻¹ could be measured.”
Chain of VEGF-A (P15692 other isoform, or with tags, fused parts or gaps limits assumed): as the sequence (P15692 other isoform, or with tags, fused parts or gaps limits assumed) above
In turn, B7 registered a Kd of 0.094 nM and a kon of 1.1e+06 M⁻¹ s⁻¹.
The corresponding values for B8 are 0.1 nM and 920000 M⁻¹ s⁻¹.
In turn, B9 had a Kd of 0.012 nM and a kon of 6.3e+06 M⁻¹ s⁻¹.

The next assay has as its target PDGF-BB (UniProt P01127 82-190). The assay is described as above. As for the experimental part: as §1, with “For example, approximately 9000 RU of goat anti-human Fc specific polyclonal antibody (Thermo Fisher Scientific Inc., Rockford, Ill.) diluted in 10 mM sodium acetate (pH 4.5) is directly immobilized across a CM5 research grade biosensor chip using a standard amine coupling kit according to manufacturer's instructions and procedures at 25 μg/ml. Unreacted” for “Unreacted”, “calculated.” for “calculated. In this assay, on-rates as fast as 10⁶M⁻¹s⁻¹ and off-rates as slow as 10⁻⁶ s⁻¹ could be measured.”
On to B7, for which the Kd was 0.18 nM and the kon came to 1e+07 M⁻¹ s⁻¹.
With B8, the Kd is 0.72 nM and the kon turned out to be 1e+07 M⁻¹ s⁻¹.
The corresponding values for B9 are 0.013 nM and 1.4e+07 M⁻¹ s⁻¹.

For orientation: Kd means the equilibrium constant for the complex coming apart. Usually kon stands for a measure of how fast the partners come together.
